T1: CD39 (Homo sapiens, UniProt P49961)
T1 sequence (P49961 1-510): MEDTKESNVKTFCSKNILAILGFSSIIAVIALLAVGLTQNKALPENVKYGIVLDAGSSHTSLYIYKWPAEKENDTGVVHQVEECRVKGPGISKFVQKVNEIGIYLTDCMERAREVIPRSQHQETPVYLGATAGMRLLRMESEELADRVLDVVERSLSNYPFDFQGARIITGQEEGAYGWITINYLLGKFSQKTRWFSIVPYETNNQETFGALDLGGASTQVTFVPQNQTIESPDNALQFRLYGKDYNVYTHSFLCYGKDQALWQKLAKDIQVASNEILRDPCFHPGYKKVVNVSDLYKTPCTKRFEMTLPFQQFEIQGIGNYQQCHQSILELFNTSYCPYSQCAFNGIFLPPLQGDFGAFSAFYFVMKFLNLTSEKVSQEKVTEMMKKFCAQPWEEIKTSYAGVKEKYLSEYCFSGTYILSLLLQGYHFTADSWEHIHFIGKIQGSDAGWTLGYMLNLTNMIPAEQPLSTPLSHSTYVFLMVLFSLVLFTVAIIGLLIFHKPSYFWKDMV

T2: soluble recombinant human CD39 protein (Homo sapiens, UniProt P49961)
T2 construct: made in house; host or cells: CHO cells
T2 sequence (P49961 with tags, fused parts or gaps): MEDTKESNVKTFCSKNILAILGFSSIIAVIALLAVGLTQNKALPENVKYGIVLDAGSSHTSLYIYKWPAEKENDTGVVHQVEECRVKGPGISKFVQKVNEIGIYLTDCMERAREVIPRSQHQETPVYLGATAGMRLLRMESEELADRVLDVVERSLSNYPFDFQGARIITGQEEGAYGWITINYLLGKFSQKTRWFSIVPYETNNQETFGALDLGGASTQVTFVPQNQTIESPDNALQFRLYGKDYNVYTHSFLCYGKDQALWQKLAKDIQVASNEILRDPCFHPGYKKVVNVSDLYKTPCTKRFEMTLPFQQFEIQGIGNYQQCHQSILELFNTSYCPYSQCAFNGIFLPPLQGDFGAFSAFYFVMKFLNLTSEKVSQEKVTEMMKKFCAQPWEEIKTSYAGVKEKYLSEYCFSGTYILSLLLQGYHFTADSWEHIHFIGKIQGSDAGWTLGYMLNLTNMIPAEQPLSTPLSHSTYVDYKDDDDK

T3: CD39 expressed by Ramos human lymphoma cells (Homo sapiens, UniProt P49961)
T3 construct: cells that endogenously express CD39 at their surface; host or cells: Ramos
T3 sequence (P49961 1-510): T1 sequence (P49961 1-510)

T4: membrane-bound CD39 in Mino tumor cells (Homo sapiens, UniProt P49961)
T4 construct: endogenous in cells; host or cells: Mino
T4 sequence (P49961 1-510): T1 sequence (P49961 1-510)

T5: human Ramos lymphoma cells (CD39) (Homo sapiens, UniProt P49961)
T5 construct: cells that endogenously express CD39 at their surface; host or cells: Ramos
T5 sequence (P49961 1-510): T1 sequence (P49961 1-510)

B1: mAb21: humanized I-394 variant, VH H4 (SEQ ID NO: 31), VL L1* (SEQ ID NO: 37); heavy chain SEQ ID NO: 38, light chain SEQ ID NO: 40 (antibody)
heavy: QVQLVQSGAEVKKPGASVKVSCKASGYTFTDYNMHWVRQAPGQRLEWIGYIVPLNGGSTFNQKFKGRATITVDTSARTAYMELSSLRSEDTAVYYCARGGTRFAYWGQGTLVTVSSASTKGPSVFPLAPSSKSTSGGTAALGCLVKDYFPEPVTVSWNSGALTSGVHTFPAVLQSSGLYSLSSVVTVPSSSLGTQTYICNVNHKPSNTKVDKRVEPKSCDKTHTCPPCPAPEAEGAPSVFLFPPKPKDTLMISRTPEVTCVVVDVSHEDPEVKFNWYVDGVEVHNAKTKPREEQYNSTYRVVSVLTVLHQDWLNGKEYKCKVSNKALPSSIEKTISKAKGQPREPQVYTLPPSREEMTKNQVSLTCLVKGFYPSDIAVEWESNGQPENNYKTTPPVLDSDGSFFLYSKLTVDKSRWQQGNVFSCSVMHEALHNHYTQKSLSLSPGK
light: DIVMTQSPDSLAVSLGERATINCKASESVDNFGVSFMYWFQQKPGQPPKLLIYGASNQGSGVPDRFSGSGSGTDFTLTISSLQAEDVAVYYCQQTKEVPYTFGGGTKVEIKRTVAAPSVFIFPPSDEQLKSGTASVVCLLNNFYPREAKVQWKVDNALQSGNSQESVTEQDSKDSTYSLSSTLTLSKADYEKHKVYACEVTHQGLSSPVTKSFNRGEC

Experiments:
CD39 = molecular target: T1, CD39; conditions: Levesque et al. (2007); cited from earlier work
[1] = molecular target: T2, soluble recombinant human CD39 protein; assay: Inhibition of the enzymatic activity of soluble CD39 (Cell Titer Glo, cell-free); type: biochemical; conditions: humanized variants
Method: (§1) The inhibition by antibodies of the enzymatic activity of soluble CD39 protein produced was evaluated using Cell Titer GIo™ (Promega, reference G7571) that allows assessment of ATP hydrolysis through use of a reagent that generates a luminescent signal proportional to the amount of ATP present. In this way, inhibition of the soluble-CD39-meidated ATP hydrolysis can be assessed. Briefly, dose ranges of anti-CD39 antibodies from 100 μg/ml to […] were incubated with 400 ng/ml of soluble recombinant human CD39 protein having the amino acid sequence described in the Methods section (SEQ ID NO: 44), for 1 h at 37° C. 20 μM ATP was added to the plates for 30 additional minutes at 37° C. before addition of CTG (Cell Titer Glo) reagent. Emitted light was quantified using an Enspire™ luminometer after a short incubation period of 5 min in the dark. Anti-CD39 antibody efficacy was determined by comparing emitted light in presence of antibody with ATP alone (maximal light emission) and ATP together with soluble CD39 protein (minimal light emission).

[2] = molecular target: T3, CD39 expressed by Ramos human lymphoma cells; assay: Inhibition of the enzymatic activity of cellular CD39 in Ramos cells; type: cell-based; conditions: Ramos cells
Method: (§2) The inhibition of the CD39 enzymatic activity in CD39-expressing cells by antibodies was evaluated using Cell Titer GIo™ (Promega, reference G7571) that allows assessment of ATP hydrolysis through use of a reagent that generates a luminescent signal proportional to the amount of ATP present. The assay was thus designed to permit assessment of the inhibition of ATP hydrolyzed by CD39 in the cell culture supernatant. Briefly, 5×10^4 Ramos human lymphoma cells, 5×10^3 human CD39−, cynomolgus CD39—and mouse CD39− expressing CHO cells, were incubated 1 hour at 37° C. with anti-CD39 antibodies from 30 μg/ml to 5×10^−4 μg/ml. Cells were then incubated with 20 μM ATP for 1 additional hour at 37° C. Plates were centrifuged for 2 min at 400 g and 50 μl cell supernatant are transferred in a luminescence microplate (white wells). 50 μl CellTiter-Glo™ Reagent (CTG) was added to the supernatant and emitted light was quantified after a 5 min incubation in the dark using a Enspire™ luminometer. Anti-CD39 antibody efficacy was determined by comparing emitted light in presence of antibody with ATP alone (maximal light emission) and ATP together with cells (minimal light emission).

[3] = molecular target: T4, membrane-bound CD39 in Mino tumor cells; assay: Inhibition of the enzymatic activity of cellular CD39 in Mino cells; type: cell-based
Method: as §2
Antibodies were tested for potency in inhibition of ATPase activity in cell lines that express membrane-bound CD39. […]

[4] = molecular target: T5, human Ramos lymphoma cells (CD39); assay: Antibody titration on Ramos cells by flow cytometry; type: binding; conditions: comparison
Method: Antibody I-394 was tested in two repeated experiments for binding to CHO cells expressing human CD39, CHO cells expressing cynomolgus (Macaca fascicularis) CD39, CHO cells expressing murine CD39, and human Ramos lymphoma cells (ATCC™, reference CRL-1596). Cells were incubated with various concentration of unlabeled anti-CD39 antibody from 30 μg/ml to 5×10^−4 μg/ml, for 30 minutes at 4° C. After washes, cells were incubated with Goat anti-mouse H+L labeled secondary antibody for 30 min at 4° C.

[5] = system: soluble CD39 protein released in cell culture supernatant from CHO cells expressing human CD39; assay: Inhibition of ATPase activity of soluble CD39 released in CHO-huCD39 culture supernatant; type: biochemical; conditions: humanized variants
Method: as §1
Antibodies were tested for capacity to inhibit the ATPase activity of soluble CD39 protein using the assays used for inhibition of the enzymatic activity of soluble CD39 as described above (Methods). […]

[6] = Stability in reference formulation (storage, freeze thaw); type: physicochemical; conditions: about 7 mg/mL, pH 6.0 histidine/sucrose/NaCl/PS80, +5° C. and +40° C., up to 1 month
Method: (§3) Antibodies mAb1-24 and prior art anti-CD39 antibody BY40, all produced as human IgG1 isotypes with L234A/L235E/G237A/A330S/P331S substitutions were tested for stability in the following reference formulation at a concentration of approximatively 7 mg/mL: pH 6.0; histidine buffer (10 mM); sucrose (200 mM); NaCl (50 mM); Polysorbate 80 (PS80) (0.2 g/L). The stability of the formulations was monitored in two storage conditions (at +5° C.±3° C. and at +40±3° C. For each study, 3 time points were performed: T0, T15D (15 days) and T1M (1 month). A freeze thaw (F/T) and a thermal shift stability assay (TSSA) were conducted for the format comparison. To perform F/T cycles, the samples were frozen at least 2 hours at −20° C. and thawed at least 1 hour at room temperature, the F/T cycle is repeated three times and samples are tested 24 h after the last Freeze/Thaw cycle. At each time point, the following tests were performed: • Particulate Matter (MFI) • Visual Inspection (Appearance) • Impurities (SE-HPLC) • Turbidity (400 nm) • Protein Concentration (280 nm) (performed with Nanodrop, Thermo Fisher Scientific Inc.)

[7] = Aggregation temperature (thermal shift stability assay); type: physicochemical; conditions: human IgG1 with L234A/L235E/G237A/A330S/P331S
Method: as §3

Molecule | inhibition of CD39 (mode, strength) (CD39) | potency for inhibition of soluble CD39 relative to parental I-394 [1] | potency at blocking CD39 enzymatic activity relative to other antibodies [2] | potency at blocking CD39 enzymatic activity relative to other antibodies [3] | binding to Ramos cells relative to I-394 [4] | potency relative to parental I-394, soluble CD39 in CHO-huCD39 supernatant [5] | physicochemical stability [6] | Aggregation temperature (TAgg) [7]
CCN(CC)c1ncnc2c1ncn2[C@@H]1O[C@H](COP(=O)(O)OP(=O)(O)C(Br)(Br)P(=O)(O)O)[C@@H](O)[C@H]1O [ARL67156] | weak competitive inhibitor | – | – | – | – | – | – | –
B1 | – | comparable to the parental I-394 antibody | more potent at blocking CD39 enzymatic activity compared to all other antibodies | more potent at blocking CD39 enzymatic activity compared to all other antibodies | best binding | comparable to the parental I-394 antibody | good physicochemical stability | ~70 °C

From patent US12202907B2, “Nucleic acids encoding and methods of producing proteins comprising antibody chains” (Innate Pharma, priority 2018, dated 2025)
